Tests used:
ZDF fa/fa rats [1] = test: Oral glucose tolerance test in ZDF fa/fa rats, humanized mAbs; assay type: in vivo, rat; details: single s.c. administration 0.2 mg/kg
Excerpt: This example describes evaluation of mouse mAb 5F12G1 and its twelve humanized clones in Zucker Diabetic fatty (ZDF fa/fa) rats for effects on insulin sensitivity in animals. Zucker Diabetic Rats develop symptoms similar to type 2 diabetes and are genetically resistant to insulin. […] Therefore, the Zucker rat is a good model to test the ability of the monoclonal antibody to increase insulin sensitivity, especially in an OGTT.
Male ZDF fa/fa rats were obtained from Charles River (Kingston, ON). Upon arrival, rats were ten weeks of age. The rats were housed individually per cage in a room with a photo cycle of 12 hours of light and 12 hours of dark and an ambient temperature of 70-72° F. and fed on regular rodent diet and water ad libitum. After seven days of acclimatization, rats were grouped into fourteen groups of three rats per group (Table 10).
Oral Glucose Tolerance Test. An oral glucose tolerance test (OGTT) was performed on overnight fasted (16 hours) rats. Rats received subcutaneously administered humanized mAbs, mouse mAb 5F12G1 (positive control) and PBS (vehicle control) at a dose of 0.2 mg/kg body weight, thirty minutes prior to glucose administration. D-Glucose was prepared in distilled water and administered orally at 2 g/kg body weight. Blood glucose levels were measured before administration of humanized mAbs, 5F12G1 or vehicle (t=−30 minutes) and just before glucose loading (0 minute), and at timepoints of 30, 60, 90 and 120 minutes, using Accu-chek™ glucose meter.

ZDF fa/fa rats [2] = test: 21-day ZDF fa/fa study: oral glucose tolerance test (blood glucose, plasma insulin); assay type: in vivo, rat; details: day 21
Experimental: Animals. Male ZDF fa/fa rats were obtained from CRL (Kingston, N.Y.). Upon arrival, rats were seven weeks of age. The rats were housed individually per cage in a room with a photo cycle of 12 hours of light and 12 hours of dark and an ambient temperature of 70-72° F. and fed on regular rodent diet and water ad libitum. At the age of eleven weeks, rats were divided into six groups (Table 5) of eight rats per group based on fasting blood glucose levels. A sub-group of four rats per group was maintained in parallel to the main groups and was dosed similarly for twenty-one days for a hyperinsulinemic-euglycemic clamp study. […]
An oral glucose tolerance test (OGTT) was performed on Day 0, 7, 14 and 21 for each group of the study. Plasma samples were collected at each time point during OGTT to also measure insulin levels. Body weight, food and water intake were measured twice a week. Blood pressure and heart rates were monitored on Day 0, 7, 14 and 21 using a non-invasive tail cuff method (with five readings per rat taken and then averaged). Fasting serum samples were collected on Day 0, 7, 14 and 21 before OGTT for determination of triglyceride and total cholesterol level. Urine samples were collected on Day 7 and 14 for the determination of glycosuria. Glycated (Glycosylated) hemoglobin (HbA1c) was measured at the end of the study. Assay kits for these studies were as presented in Table 6, and were used according to the suppliers' instructions.
OGTTs were performed on Day 0, 7, 14 and Day 21. Rats were fasted overnight and fasted blood glucose levels were measured (t=0 min), and then each rat was given a single 1.5 ml dose of glucose solution (2 g/kg body weight of D-(+)-glucose (G7528, Sigma) solubilized in deionized water) administered by oral gavage. […] At each time point of an OGGT approximately 50-60 μl of blood were collected and processed for plasma to measure insulin levels.
Plasma Collection. On days 0, 7, 14 and 21 during an OGTT test, blood samples were collected from the rats at each time point (0, 15, 30, 60, 90 and 120 minutes) into tubes containing lithium heparin (BD Biosciences, USA) by tail nip and kept on ice. The samples were then centrifuged at 4° C. for plasma separation and the plasma supernatants were transferred into 0.5 ml Eppendorf™ tubes by pipette and stored at −80° C. for the analysis of insulin levels.

[3] = tested on: diet induced obese (DIO) mice; test: Oral glucose tolerance test in DIO mice, single dose of 5F12G1; assay type: in vivo, mouse; details: single s.c. administration 1.0, 0.2 and 0.04 mg/kg
Experimental: This Example describes evaluation of oral glucose tolerance in diet induced obese (DIO) mice treated with the anti-BKB2R monoclonal antibody 5F12G1 (VH comprising SEQ ID NO:1, VL comprising SEQ ID NO:2). Male C57BL/6J mice (Jackson Laboratory, Bar Harbor, Me.) were maintained on a 60 kcal % fat diet with Research Diet and Arrowhead drinking water ad libitum and permitted to acclimatize for a period of eight weeks. Ten animals per group were treated according to the following treatment groups: 1, sterile PBS (vehicle control); 2, 1.0 mg/kg murine monoclonal antibody (mAb) 5F12G1; 3, 0.2 mg/kg mAb 5F12G1; 4, 0.04 mg/kg mAb 5F12G1.
Oral Glucose Tolerance Test. The Oral Glucose Tolerance Test (OGTT) was performed on overnight fasted (16 hours) mice. […] Blood glucose levels were measured before administration of vehicle or 5F12G1 (−30 minutes) and just before glucose loading (0 minute) and at ensuing timepoints of 15, 30, 60 90 and 120 minutes using an Accu-Chek™ glucose meter (Roche Diagnostics, Indianapolis, Ind.) according to the manufacturer's instructions.
At multiple time points (0, 15, 30, 60, 90 and 120 minutes) blood samples of approximately 50 μl each were collected and processed to isolate the plasma. The plasma samples were analyzed for insulin by an ELISA method using an ultra sensitive mouse insulin ELISA kit (Crystal Chem, Inc., Downers Grove, Ill.). […]

B1: 5F12G1: murine monoclonal anti-BKB2R antibody (IgG2b,κ), VH comprising SEQ ID NO:1, VL comprising SEQ ID NO:2 (antibody, listed as Mus musculus, V domains shown)
VH: EVKLEESGGGLVQPGGSMKLSCVVSGFTFSDYWMSWVRHSPEMGLEWVAEIRLKSDNYATHYAESVKGRFTISRDDSKSRLYLQINSLRGEDTGIYYCTRDYYAMEYWGQGTSVTVSS
VL: DVVMTQTPLSLPVSLGDQASISCRSSQTIVHSNGKTYLEWYLQKPGQSPKLLIYKVSNRFSGVPDRFSGSGSGTEFTLKISRVETEDLGVYYCFQASHVPYTFGGGTKLEIK
glucose tolerance (ZDF fa/fa rats [1]): showed improvement in glucose tolerance
area under curve (AUC) of blood glucose concentration after oral administration of glucose, compared to vehicle control (ZDF fa/fa rats [1]; 30 min prior to glucose 2 g/kg): decreased
blood glucose level at the start of the OGTT (ZDF fa/fa rats [2]; 0.008 mg/kg s.c. every 3 days): 190 ± 40 mg/dL
fasting insulin level (ZDF fa/fa rats [2]; 0.008 mg/kg s.c. every 3 days): 14 ± 3 ng/mL
insulin level at 15 minutes of the OGTT (ZDF fa/fa rats [2]; 0.008 mg/kg s.c. every 3 days): 24 ± 6 ng/mL
blood glucose level at 30 minutes of the OGTT (peak) (ZDF fa/fa rats [2]; 0.04 mg/kg s.c. every 3 days): 355 mg/dL
blood glucose level at the start of the OGTT (ZDF fa/fa rats [2]; 0.04 mg/kg s.c. every 3 days): 163 ± 40 mg/dL
fasting insulin level (ZDF fa/fa rats [2]; 0.04 mg/kg s.c. every 3 days): 12 ± 3 ng/mL
insulin level at 15 minutes of the OGTT (ZDF fa/fa rats [2]; 0.04 mg/kg s.c. every 3 days): 26 ± 3 ng/mL
AUC of blood glucose during OGTT (ZDF fa/fa rats [2]; 0.2 mg/kg s.c. every 3 days): 33241.13 ± 3910.62 mg/dL (min)
blood glucose level at 30 minutes of the OGTT (peak) (ZDF fa/fa rats [2]; 0.2 mg/kg s.c. every 3 days): 312 mg/dL
blood glucose level at the start of the OGTT (ZDF fa/fa rats [2]; 0.2 mg/kg s.c. every 3 days): 150 ± 20 mg/dL
fasting insulin level (ZDF fa/fa rats [2]; 0.2 mg/kg s.c. every 3 days): 17 ± 5 ng/mL
insulin level at 15 minutes of the OGTT (ZDF fa/fa rats [2]; 0.2 mg/kg s.c. every 3 days): 30 ± 7 ng/mL
blood glucose level at 30 minutes of the OGTT (peak) (ZDF fa/fa rats [2]; 0.008 s.c. every 3 days): 400 mg/dL
insulin activity in OGTT [3]: dose dependently increased insulin activity
area under curve (AUC) of blood glucose concentration after oral loading of glucose, compared to vehicle control ([3]; 30 min before glucose 2 g/kg): decreased
